The target in assay [1] is cynomolgus IL-23 (cynomolgus). Description: cell-based or functional assay.
The target in assay [2] is recombinant human IL-23 (p19/p40) (human) (UniProt Q9NPF7). Nature of the assay: cell-based or functional assay.
Assay [3] deals with native human IL-23 (supernatant of SAC-stimulated THP-1 cells) (human) (UniProt Q9NPF7). Description: cell-based or functional assay.
Assay [4] has as its target recombinant human IL-23 (p19/p40) (human) (UniProt Q9NPF7). Nature of the assay: inhibition ELISA, hIL-23/hIL-23R-Fc. A general note: ELISA stands for enzyme-linked immunosorbent assay.
Assay [5] addresses cynomolgus IL-23 (cynomolgus). Nature of the assay: cell-based or functional assay. The source holds these as a separate data set.
The target of assay [6] is recombinant human IL-23 (p19/p40) (human) (UniProt Q9NPF7). Nature of the assay: cell-based or functional assay. The source holds these as a separate data set.

Where two headings read alike, the source gives them in different places.

A word on the IC50: it is the concentration needed to halve the response being measured.

Sequence of recombinant human IL-23 (p19/p40) (human) (Q9NPF7 20-189 limits assumed, chain 1 of 2): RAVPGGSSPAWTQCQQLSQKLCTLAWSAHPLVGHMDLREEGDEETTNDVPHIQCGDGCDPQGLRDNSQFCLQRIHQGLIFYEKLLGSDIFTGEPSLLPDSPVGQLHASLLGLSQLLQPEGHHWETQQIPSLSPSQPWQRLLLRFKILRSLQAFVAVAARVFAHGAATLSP
Sequence of recombinant human IL-23 (p19/p40) (human) (P29460 23-328 limits assumed, chain 2 of 2, further chain): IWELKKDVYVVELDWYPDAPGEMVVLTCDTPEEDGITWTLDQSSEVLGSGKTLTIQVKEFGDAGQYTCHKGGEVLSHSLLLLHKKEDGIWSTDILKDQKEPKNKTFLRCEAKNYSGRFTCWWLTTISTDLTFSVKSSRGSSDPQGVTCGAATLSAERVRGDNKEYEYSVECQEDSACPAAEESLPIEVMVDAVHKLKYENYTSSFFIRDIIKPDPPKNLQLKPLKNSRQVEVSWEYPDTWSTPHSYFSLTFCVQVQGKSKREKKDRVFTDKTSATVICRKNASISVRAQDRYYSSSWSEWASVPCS
Sequence of native human IL-23 (supernatant of SAC-stimulated THP-1 cells) (human) (Q9NPF7 20-189, chain 1 of 2): as the sequence (Q9NPF7 20-189 limits assumed, chain 1 of 2) above
Sequence of native human IL-23 (supernatant of SAC-stimulated THP-1 cells) (human) (P29460 23-328, chain 2 of 2, further chain): as the sequence (P29460 23-328 limits assumed, chain 2 of 2, further chain) above

B1: P23IL20B11-9GS-ALB1-9GS-37D5 (bispecific antibody, part only; not given: anti-albumin Nanobody, part only)
chain, part: EVQLVESGGGLVQAGGSLRLSCAVSGDTFSVYGMGWFRQAPGMEREFVAGISWNAGITAYTDTLKGRFTISRDRAKNTMYLQMNSLQPEDTAVYYCAADVTRHYIATRSKVDASMYDYWGQGTQVTVSSGGGGSGGGSGGGGSGGGSEVQLVESGGGLVQPGGSLRLSCAASGFTLDYLAIGWFRQAPGKEREGVSCVSSSGQYTYYADSVKGRFTISRDNAESTVYLQMNSLKPEDTAVYYCATDPECYRVRGYYNGEYDYWGQGTQVTVSS
In the case of B1, the IC50, splenocyte assay, 3.8 pM cIL-23 in assay [1] was 8.59 pM. Further, the IC50, splenocyte assay, 19 pM hIL-23 in assay [2] came to 4.47 pM.

B2: P23IL37D5-9GS-ALB1 (bispecific antibody, part only; not given: anti-albumin Nanobody, part only)
chain, part: EVQLVESGGGLVQPGGSLRLSCAASGFTLDYLAIGWFRQAPGKEREGVSCVSSSGQYTYYADSVKGRFTISRDNAESTVYLQMNSLKPEDTAVYYCATDPECYRVRGYYNGEYDYWGQGTQVTVSSGGGGSGGGS
B2 gave an IC50, splenocyte assay, 3.8 pM cIL-23 in assay [1] of 419 pM. In addition, the IC50, splenocyte assay, 19 pM native hIL-23 (Expt 3) in assay [3] is 60 pM. Also, in assay [2], the IC50, splenocyte assay, 19 pM hIL-23 is 29.8 pM. Also, the IC50 in assay [4] is 0.037 nM.

B3: P23IL37D5-9GS-ALB1-9GS-20B11 (bispecific antibody, part only; not given: anti-albumin Nanobody, part only)
chain, part: EVQLVESGGGLVQPGGSLRLSCAASGFTLDYLAIGWFRQAPGKEREGVSCVSSSGQYTYYADSVKGRFTISRDNAESTVYLQMNSLKPEDTAVYYCATDPECYRVRGYYNGEYDYWGQGTQVTVSSGGGGSGGGSGGGGSGGGSEVQLVESGGGLVQAGGSLRLSCAVSGDTFSVYGMGWFRQAPGMEREFVAGISWNAGITAYTDTLKGRFTISRDRAKNTMYLQMNSLQPEDTAVYYCAADVTRHYIATRSKVDASMYDYWGQGTQVTVSS
Consider B3, for which the IC50, splenocyte assay, 19 pM native hIL-23 (Expt 3) in assay [3] stood at 12 pM. Further, the IC50, BAF3 proliferation assay, 76 pM hIL-23 in assay [2] turned out to be 19.5 pM.

B4: P23IL119A3V16-9GS-ALB8-9GS-81A12V4 (bispecific antibody, part only; not given: anti-albumin Nanobody, part only)
chain, part: EVQLLESGGGLVQPGGSLRLSCAASGRIFSLPASGNIFNLLTIAWYRQAPGKGRELVATINSGSRTYYADSVKGRFTISRDNSKKTLYLQMNSLRPEDTAVYYCQTSGSGSPNFWGQGTLVTVSSGGGGSGGGSGGGGSGGGSEVQLLESGGGLVQPGGSLRLSCAASGRTLSSYAMGWFRQAPGKGREFVSRISQGGTAIYYADSVKGRFTISRDNSKNTLYLQMNSLRPEDTAVYYCAKDPSPYYRGSAYLLSGSYDSWGQGTLVTVSS
As for B4, the IC50, splenocyte assay, 3.8 pM cIL-23 worked out at 6.7 pM in assay [1] and 5.4 pM in assay [5]. In assay [2], the IC50, BA/F3 proliferation assay, 76 pM hIL-23 is 49 pM. Further, the IC50, splenocyte assay, 19 pM hIL-23 in assay [2] worked out at 4.6 pM; in assay [6] it was 3.6 pM. Further, the IC50 in assay [4] was found to be 0.023 nM.

B5: P23IL37D5-15GS-ALB1-15GS-20B11 (bispecific antibody, part only; not given: anti-albumin Nanobody and linkers, not shown: small tags and cut ends)
chain, part: EVQLVESGGGLVQPGGSLRLSCAASGFTLDYLAIGWFRQAPGKEREGVSCVSSSGQYTYYADSVKGRFTISRDNAESTVYLQMNSLKPEDTAVYYCATDPECYRVRGYYNGEYDYWGQGTQVTVSSEVQLVESGGGLVQAGGSLRLSCAVSGDTFSVYGMGWFRQAPGMEREFVAGISWNAGITAYTDTLKGRFTISRDRAKNTMYLQMNSLQPEDTAVYYCAADVTRHYIATRSKVDASMYDYWGQGTQVTVSS
In assay [1], B5 had an IC50, splenocyte assay, 3.8 pM cIL-23 of 5.75 pM. The IC50, splenocyte assay, 19 pM hIL-23 in assay [2] was 5.77 pM.

B6: P23IL-121A2-9GS-ALB1-9GS-119G7 (bispecific antibody, part only; not given: anti-albumin Nanobody, part only)
chain, part: EVQLVESGGGLVQAGGSLRLSCAASGSIFNFNYMGWFRQAPGKEREFVAAIRWSGSSTYYADSVKGRFTISRDDAKNTVALQMNSLKPEDTAIYYCALRKGIPYSTSDRVIKGVNDYDYWGQGTQVTVSSGGGGSGGGSGGGGSGGGSEVQLVESGGGLVQAGGSLTLSCAVSGLTFNNYAMGWFRQVPGKEREFVAAISRSGLRTFYSDSVKGRFTISRDSAKSTVYVQMNNLKPEDTAVYFCAADRRTYYSEGPSLTDTLRYDYWGQGTQVTVSS
For the molecule B6, in assay [2], the IC50, splenocyte assay, 19 pM hIL-23 stood at 39 pM.

B7: P23IL119A3-9GS-ALB1-9GS-81G2 (bispecific antibody, part only; not given: anti-albumin Nanobody, part only)
chain, part: EVQLVESGGGLVQAGGSLRLSCAASGRIFSLPASGNIFNLLTIAWHRQAPGMQRELVATINSGSRTNYADSVKGRFTISRDNAQKTVYLQMNNLKPEDTAVYYCQTSGSGSPNFWGQGTQVTVSSGGGGSGGGSGGGGSGGGSEVQLVESGGGLVQPGGSLRLSCIASGLPFSTKSMGWFRQAPGKEREFVARISPGGTSRYYGDFVKGRFAISRDNAKNTTWLQMNSLKAEDTAVYYCASGERSTYIGSNYYRTNEYDYWGTGTQVTVSS
Turning to B7, the IC50, splenocyte assay, 3.8 pM cIL-23 in assay [1] was 3 pM. The IC50, splenocyte assay, 19 pM hIL-23 in assay [2] is 4 pM.

B8: P23IL119A3-9GS-ALB1-9GS-81A12 (bispecific antibody, part only; not given: anti-albumin Nanobody, part only)
chain, part: EVQLVESGGGLVQAGGSLRLSCAASGRIFSLPASGNIFNLLTIAWHRQAPGMQRELVATINSGSRTNYADSVKGRFTISRDNAQKTVYLQMNNLKPEDTAVYYCQTSGSGSPNFWGQGTQVTVSSGGGGSGGGSGGGGSGGGSEVQLVESGGGLVQAGGSLRLSCAASGRTLSSYAMGWFRQAPGKEREFVARISQGGTAIYYADSVKGRFTISRDNAKNTVYLQMNSLKPEDTAVYYCAKDPSPYYRGSAYLLSGSYDSWGQGTQVTVSS
In assay [1], B8 returned an IC50, splenocyte assay, 3.8 pM cIL-23 of 3.3 pM. Besides, the IC50, splenocyte assay, 19 pM hIL-23 in assay [2] turned out to be 2.5 pM.

B9: P23IL-121A2-9GS-ALB1-9GS-81G2 (bispecific antibody, part only; not given: anti-albumin Nanobody, part only)
chain, part: EVQLVESGGGLVQAGGSLRLSCAASGSIFNFNYMGWFRQAPGKEREFVAAIRWSGSSTYYADSVKGRFTISRDDAKNTVALQMNSLKPEDTAIYYCALRKGIPYSTSDRVIKGVNDYDYWGQGTQVTVSSGGGGSGGGSGGGGSGGGSEVQLVESGGGLVQPGGSLRLSCIASGLPFSTKSMGWFRQAPGKEREFVARISPGGTSRYYGDFVKGRFAISRDNAKNTTWLQMNSLKAEDTAVYYCASGERSTYIGSNYYRTNEYDYWGTGTQVTVSS
With B9, the IC50, splenocyte assay, 19 pM hIL-23 in assay [2] was 8 pM.
